Targets include Pyk2(h) (Homo sapiens, UniProt Q14289); IR(h) (Homo sapiens, UniProt P06213); DAPK2(h) (Homo sapiens, UniProt Q9UIK4); KDR(h) (Homo sapiens, UniProt P35968); PDGFRα(h) (Homo sapiens, UniProt P16234); JNK2α2(h) (Homo sapiens, UniProt P45984); Abl(h) (Homo sapiens, UniProt P00519); MAPKAP-K2(h) (Homo sapiens, UniProt P49137); EGFR(T790M, L858R)(h) (Homo sapiens, UniProt P00533, L858R/T790M); Abl(T315I)(h) (Homo sapiens, UniProt P00519, T315I); Abl(Y253F)(h) (Homo sapiens, UniProt P00519, Y253F); Rsk2(h) (Homo sapiens, UniProt P51812).

Common to all, as to experiment: Kinase Profiling Assay
Common to all, as to type: biochemical
What all share (conditions): 100 μM

The next test concerns the target T1, BrSK2(h) (Homo sapiens, UniProt Q8IWQ3).
T1 sequence (Q8IWQ3 1-736): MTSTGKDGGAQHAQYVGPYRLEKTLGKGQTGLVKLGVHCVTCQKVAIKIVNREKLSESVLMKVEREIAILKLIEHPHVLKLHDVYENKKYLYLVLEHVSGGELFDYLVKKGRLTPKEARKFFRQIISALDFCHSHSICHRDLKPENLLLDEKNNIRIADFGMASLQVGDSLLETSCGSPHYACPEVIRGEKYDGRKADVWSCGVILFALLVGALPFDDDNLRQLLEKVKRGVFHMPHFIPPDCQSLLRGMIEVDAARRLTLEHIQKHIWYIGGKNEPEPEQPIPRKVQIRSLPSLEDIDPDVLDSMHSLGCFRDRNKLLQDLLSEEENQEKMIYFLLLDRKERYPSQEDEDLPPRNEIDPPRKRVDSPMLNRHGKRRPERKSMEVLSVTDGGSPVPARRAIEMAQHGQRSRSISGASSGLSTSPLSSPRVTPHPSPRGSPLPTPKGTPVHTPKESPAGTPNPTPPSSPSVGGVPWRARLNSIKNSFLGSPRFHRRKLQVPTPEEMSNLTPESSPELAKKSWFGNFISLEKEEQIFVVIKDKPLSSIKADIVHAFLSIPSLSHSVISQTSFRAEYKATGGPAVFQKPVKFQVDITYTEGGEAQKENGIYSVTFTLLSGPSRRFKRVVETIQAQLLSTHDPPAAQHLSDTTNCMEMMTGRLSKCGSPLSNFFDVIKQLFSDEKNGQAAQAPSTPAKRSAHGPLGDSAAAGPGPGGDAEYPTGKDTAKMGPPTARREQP

In a further test the target is T2, PDK1(h) (Homo sapiens, UniProt O15530).
T2 sequence (O15530 1-556): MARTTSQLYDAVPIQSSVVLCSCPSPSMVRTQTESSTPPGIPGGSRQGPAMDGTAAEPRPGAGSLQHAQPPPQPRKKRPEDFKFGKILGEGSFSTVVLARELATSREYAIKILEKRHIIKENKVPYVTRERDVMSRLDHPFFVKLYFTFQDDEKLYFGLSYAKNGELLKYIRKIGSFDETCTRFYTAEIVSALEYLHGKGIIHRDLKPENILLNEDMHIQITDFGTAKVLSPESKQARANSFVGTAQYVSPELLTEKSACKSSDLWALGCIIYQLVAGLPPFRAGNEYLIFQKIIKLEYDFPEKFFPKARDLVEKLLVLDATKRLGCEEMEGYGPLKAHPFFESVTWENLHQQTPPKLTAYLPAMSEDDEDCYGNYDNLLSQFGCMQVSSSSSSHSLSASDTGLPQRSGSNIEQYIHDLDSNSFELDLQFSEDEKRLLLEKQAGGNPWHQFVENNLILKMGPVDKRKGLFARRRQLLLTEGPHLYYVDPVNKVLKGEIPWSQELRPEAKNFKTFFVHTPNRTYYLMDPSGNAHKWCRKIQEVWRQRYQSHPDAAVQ

In another test the target is T3, PKCε(h) (Homo sapiens, UniProt Q02156).
T3 sequence (Q02156 1-737): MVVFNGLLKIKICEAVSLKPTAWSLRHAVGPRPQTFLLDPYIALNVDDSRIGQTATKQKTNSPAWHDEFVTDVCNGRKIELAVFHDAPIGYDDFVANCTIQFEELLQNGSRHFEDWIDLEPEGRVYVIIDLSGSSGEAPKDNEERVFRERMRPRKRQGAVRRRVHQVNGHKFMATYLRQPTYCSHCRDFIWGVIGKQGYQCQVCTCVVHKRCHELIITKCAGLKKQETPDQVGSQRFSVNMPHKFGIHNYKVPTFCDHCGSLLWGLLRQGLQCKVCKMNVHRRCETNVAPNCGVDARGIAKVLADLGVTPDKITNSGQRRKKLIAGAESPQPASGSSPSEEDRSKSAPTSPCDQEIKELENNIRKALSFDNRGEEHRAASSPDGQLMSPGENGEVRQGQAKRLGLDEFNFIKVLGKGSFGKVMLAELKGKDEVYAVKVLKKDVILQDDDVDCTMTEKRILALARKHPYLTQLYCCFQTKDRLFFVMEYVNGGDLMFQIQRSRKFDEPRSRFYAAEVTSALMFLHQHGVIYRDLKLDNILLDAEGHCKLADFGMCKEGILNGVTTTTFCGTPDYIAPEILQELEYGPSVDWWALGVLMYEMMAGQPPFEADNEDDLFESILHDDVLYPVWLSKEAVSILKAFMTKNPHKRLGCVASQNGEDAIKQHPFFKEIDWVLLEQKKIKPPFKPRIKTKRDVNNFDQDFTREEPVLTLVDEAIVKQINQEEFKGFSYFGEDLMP

KDR(h), sequence (P35968 20-1356): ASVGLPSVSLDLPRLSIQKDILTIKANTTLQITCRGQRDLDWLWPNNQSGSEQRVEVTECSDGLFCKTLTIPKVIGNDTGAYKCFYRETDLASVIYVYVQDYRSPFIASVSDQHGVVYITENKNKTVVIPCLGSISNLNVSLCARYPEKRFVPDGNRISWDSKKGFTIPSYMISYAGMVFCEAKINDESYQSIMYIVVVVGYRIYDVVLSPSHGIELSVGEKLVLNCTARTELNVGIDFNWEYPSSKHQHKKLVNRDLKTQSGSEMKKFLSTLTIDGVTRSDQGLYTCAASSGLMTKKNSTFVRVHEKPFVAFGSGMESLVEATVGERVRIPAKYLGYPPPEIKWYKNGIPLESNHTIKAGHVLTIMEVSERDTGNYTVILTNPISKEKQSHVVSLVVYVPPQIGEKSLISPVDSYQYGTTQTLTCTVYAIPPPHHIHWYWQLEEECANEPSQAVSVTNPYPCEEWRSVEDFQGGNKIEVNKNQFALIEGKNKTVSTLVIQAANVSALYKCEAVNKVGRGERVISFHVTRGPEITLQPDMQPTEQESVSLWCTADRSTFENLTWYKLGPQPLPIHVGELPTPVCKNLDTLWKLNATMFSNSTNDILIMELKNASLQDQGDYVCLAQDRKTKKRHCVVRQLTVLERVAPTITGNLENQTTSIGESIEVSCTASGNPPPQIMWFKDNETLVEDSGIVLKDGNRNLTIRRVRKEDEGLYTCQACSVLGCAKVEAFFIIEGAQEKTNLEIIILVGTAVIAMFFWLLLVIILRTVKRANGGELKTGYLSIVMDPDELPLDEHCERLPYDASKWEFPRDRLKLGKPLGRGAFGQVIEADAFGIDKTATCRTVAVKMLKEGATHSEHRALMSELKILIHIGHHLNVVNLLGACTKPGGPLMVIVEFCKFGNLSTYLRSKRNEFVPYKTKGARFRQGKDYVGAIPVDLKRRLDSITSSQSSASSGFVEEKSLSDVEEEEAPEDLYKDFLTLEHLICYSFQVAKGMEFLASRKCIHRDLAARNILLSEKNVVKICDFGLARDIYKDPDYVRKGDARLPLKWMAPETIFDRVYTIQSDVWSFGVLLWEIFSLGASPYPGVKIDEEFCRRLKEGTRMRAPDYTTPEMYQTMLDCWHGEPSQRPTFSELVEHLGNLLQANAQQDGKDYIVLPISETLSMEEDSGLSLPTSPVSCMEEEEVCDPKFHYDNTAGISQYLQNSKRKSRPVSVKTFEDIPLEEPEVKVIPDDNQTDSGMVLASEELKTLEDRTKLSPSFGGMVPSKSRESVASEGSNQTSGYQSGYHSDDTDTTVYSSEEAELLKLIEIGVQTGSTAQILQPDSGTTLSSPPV
PDGFRα(h), sequence (P16234 24-1089): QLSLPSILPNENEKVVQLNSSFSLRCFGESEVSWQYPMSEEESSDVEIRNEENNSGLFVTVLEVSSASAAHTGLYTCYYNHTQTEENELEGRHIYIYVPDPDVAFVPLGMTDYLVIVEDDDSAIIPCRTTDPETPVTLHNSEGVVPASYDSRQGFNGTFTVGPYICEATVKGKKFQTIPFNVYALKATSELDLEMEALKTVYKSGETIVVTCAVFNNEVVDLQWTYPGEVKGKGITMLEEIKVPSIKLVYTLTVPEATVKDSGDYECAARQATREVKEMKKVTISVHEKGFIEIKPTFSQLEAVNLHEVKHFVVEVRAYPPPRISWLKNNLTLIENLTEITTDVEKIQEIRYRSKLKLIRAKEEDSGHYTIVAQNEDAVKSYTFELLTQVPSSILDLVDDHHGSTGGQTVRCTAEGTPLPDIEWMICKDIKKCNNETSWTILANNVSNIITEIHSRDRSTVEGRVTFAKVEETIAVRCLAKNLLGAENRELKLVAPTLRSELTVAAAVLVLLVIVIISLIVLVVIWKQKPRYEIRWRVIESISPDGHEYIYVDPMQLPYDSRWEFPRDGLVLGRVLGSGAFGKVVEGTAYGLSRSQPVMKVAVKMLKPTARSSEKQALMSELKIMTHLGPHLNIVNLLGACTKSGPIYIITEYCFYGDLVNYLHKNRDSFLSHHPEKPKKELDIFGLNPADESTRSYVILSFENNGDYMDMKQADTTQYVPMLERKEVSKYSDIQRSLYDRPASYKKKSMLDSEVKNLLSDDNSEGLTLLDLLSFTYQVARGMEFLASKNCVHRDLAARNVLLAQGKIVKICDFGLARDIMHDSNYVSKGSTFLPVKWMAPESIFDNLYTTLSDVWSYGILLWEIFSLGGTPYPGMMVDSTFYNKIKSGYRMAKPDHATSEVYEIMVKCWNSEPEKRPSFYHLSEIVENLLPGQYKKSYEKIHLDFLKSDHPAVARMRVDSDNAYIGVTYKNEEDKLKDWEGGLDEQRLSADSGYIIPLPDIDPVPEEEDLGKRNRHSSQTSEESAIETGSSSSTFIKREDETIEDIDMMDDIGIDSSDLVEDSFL
Pyk2(h), sequence (Q14289 whole entry): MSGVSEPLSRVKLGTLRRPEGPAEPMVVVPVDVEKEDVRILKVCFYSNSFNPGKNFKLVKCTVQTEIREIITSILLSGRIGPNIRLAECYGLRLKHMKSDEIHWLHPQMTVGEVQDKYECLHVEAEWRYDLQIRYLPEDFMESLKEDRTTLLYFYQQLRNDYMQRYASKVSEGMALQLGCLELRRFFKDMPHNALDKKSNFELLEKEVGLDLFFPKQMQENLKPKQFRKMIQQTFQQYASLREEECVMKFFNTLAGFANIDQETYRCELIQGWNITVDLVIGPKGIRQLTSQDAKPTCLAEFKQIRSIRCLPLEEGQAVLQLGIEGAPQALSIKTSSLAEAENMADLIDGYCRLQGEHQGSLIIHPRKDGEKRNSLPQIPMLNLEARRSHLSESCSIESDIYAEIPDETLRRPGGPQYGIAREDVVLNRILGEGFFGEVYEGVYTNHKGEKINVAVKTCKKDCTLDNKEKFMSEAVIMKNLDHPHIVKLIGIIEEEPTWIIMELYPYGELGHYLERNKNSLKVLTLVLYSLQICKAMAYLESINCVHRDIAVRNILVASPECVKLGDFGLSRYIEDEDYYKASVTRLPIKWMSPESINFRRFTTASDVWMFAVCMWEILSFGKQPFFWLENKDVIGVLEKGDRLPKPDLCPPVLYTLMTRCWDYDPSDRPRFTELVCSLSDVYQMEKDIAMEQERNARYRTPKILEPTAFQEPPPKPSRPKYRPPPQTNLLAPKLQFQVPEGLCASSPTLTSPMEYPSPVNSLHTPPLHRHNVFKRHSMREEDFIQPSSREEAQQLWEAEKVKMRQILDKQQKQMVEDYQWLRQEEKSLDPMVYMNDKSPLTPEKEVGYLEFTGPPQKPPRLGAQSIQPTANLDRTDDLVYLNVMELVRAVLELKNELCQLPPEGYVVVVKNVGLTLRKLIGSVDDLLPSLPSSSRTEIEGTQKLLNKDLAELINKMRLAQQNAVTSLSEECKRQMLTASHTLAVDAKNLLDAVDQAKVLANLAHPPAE
Rsk2(h), sequence (P51812 whole entry): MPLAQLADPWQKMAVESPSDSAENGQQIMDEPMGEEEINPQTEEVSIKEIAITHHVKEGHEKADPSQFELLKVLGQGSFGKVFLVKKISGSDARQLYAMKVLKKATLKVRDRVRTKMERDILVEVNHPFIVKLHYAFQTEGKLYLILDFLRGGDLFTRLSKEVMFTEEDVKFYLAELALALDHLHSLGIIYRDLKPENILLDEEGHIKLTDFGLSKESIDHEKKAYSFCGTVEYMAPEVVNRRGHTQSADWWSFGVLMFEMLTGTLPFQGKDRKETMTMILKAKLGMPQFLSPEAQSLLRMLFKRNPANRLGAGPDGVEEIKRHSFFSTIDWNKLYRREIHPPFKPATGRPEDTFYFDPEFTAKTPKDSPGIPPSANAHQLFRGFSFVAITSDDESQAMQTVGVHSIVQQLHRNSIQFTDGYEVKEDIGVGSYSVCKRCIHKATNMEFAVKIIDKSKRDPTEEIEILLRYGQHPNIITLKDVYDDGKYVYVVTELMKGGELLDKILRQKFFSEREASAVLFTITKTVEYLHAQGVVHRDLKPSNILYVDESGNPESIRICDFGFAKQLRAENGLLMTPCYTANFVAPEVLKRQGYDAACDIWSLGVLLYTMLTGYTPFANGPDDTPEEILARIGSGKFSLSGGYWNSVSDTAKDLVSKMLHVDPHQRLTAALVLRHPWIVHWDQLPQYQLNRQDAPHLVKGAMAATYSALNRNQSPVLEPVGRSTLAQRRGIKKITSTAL
DAPK2(h), sequence (Q9UIK4 whole entry): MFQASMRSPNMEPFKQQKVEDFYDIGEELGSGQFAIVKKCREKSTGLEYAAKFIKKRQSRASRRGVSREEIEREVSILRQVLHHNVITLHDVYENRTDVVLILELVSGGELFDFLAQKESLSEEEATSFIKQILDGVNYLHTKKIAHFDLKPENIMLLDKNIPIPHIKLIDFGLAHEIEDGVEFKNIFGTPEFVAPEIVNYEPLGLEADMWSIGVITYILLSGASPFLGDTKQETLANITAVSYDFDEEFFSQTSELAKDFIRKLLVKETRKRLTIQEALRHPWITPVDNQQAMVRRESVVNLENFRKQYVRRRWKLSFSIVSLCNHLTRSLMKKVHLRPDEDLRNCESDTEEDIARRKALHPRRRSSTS
MAPKAP-K2(h), sequence (P49137 whole entry): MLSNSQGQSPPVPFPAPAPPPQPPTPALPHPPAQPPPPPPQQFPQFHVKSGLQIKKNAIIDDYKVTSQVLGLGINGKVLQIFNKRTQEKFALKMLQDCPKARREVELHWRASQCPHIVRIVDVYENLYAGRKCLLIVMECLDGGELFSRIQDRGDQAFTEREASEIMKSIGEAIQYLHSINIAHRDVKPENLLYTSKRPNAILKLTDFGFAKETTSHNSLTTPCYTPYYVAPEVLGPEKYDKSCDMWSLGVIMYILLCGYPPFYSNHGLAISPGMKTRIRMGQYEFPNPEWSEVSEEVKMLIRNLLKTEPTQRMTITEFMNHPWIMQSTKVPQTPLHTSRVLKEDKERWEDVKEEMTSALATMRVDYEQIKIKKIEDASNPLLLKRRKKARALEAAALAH

On to FAKLAARLYRKALARQLGVAA [MMI-0300], for which the “% activity” value with BrSK2(h) is given as 83%; with PDK1(h), 135%; with Pyk2(h), 47%; in the test with PKCε(h), 79%; in the test with IR(h) it was 96%; with DAPK2(h), 32%. For the same sequence, the “% activity” value in the test with KDR(h) is 101%; with PDGFRα(h) it was 65%; with JNK2α2(h), 98%; with Abl(h), 69%; with MAPKAP-K2(h) it was 5%; with EGFR(T790M, L858R)(h) it was 85%. The entries for the “% activity” value with Abl(T315I)(h), with Abl(Y253F)(h) and with Rsk2(h) were 97%, 86% and 51%, respectively.
On to YARAAARQARAKALNRQLGVA [MMI-0200], for which the “% activity” value with PDK1(h) stood at 143%; in the test with Pyk2(h), 127%; in the test with PKCε(h), 98%; with IR(h) it was 90%; with DAPK2(h), 92%; with KDR(h), 110%. For the same sequence, the “% activity” value with PDGFRα(h) stood at 108%; with MAPKAP-K2(h) it was 35%; in the test with EGFR(T790M, L858R)(h) it was 108%; in the test with Abl(T315I)(h), 108%; with Rsk2(h) it was 101%.
Consider KAFAKLAARLYRKALARQLGVAA [MMI-0400], for which the “% activity” value with BrSK2(h) is recorded as 86%; with PDK1(h), 159%; with Pyk2(h) it was 34%; in the test with PKCε(h), 59%; with IR(h), 85%; with DAPK2(h), 16%. Moreover, the “% activity” value is on record as 94% with KDR(h); 40% with PDGFRα(h); 96% in the test with JNK2α2(h); 84% in the test with Abl(h); 5% with MAPKAP-K2(h); 78% with EGFR(T790M, L858R)(h). The “% activity” value with Abl(Y253F)(h) was determined as 78%; in the test with Rsk2(h), 38%.
Turning to HRRIKAWLKKIKALARQLGVAA [MMI-0500], the “% activity” value with BrSK2(h) was found to be 84%; with PDK1(h) it was 178%; with Pyk2(h), 46%; with PKCε(h) it was 23%; with IR(h), 95%; with DAPK2(h), 3%. In addition, the “% activity” value with KDR(h) was determined as 15%; with PDGFRα(h) it was 40%; in the test with JNK2α2(h) it was 81%; in the test with Abl(h), 16%; in the test with MAPKAP-K2(h), 9%; with EGFR(T790M, L858R)(h), 53%. In addition, the “% activity” value was found to be 16% with Abl(T315I)(h), 29% with Abl(Y253F)(h) and 14% in the test with Rsk2(h).

The record behind these values is US20190134153A1, “IMMUNOMODULATORY EFFECT OF INHALED KINASE INHIBITOR PEPTIDES IN LUNG” (MOERAE MATRIX, INC., priority 2017, published 2019).
